From patent publication US11932683B2, “Cellular factors involved in the cytotoxicity of Staphylococcus aureus leukocidins: novel therapeutic targets” (NEW YORK UNIVERSITY, priority 2013, dated 2024)

Key:
[1] = test system: monocytes within PBMCs; assay: LukED treatment of human PBMCs, CD14/CD3 flow cytometry; format: cell-based; details: CCR5+-gated PBMC; LukED 75 nM plus MVC 100 ng/mL
Procedure: Isolation of PBMCs. Blood was obtained as buffy coats with the consent of de-identified donors from the New York Blood Center. PBMCs were isolated from blood using a Ficoll-Paque PLUS gradient (GE Amersham) and gated on CCR5^+ cells, followed by anti-CD3 and CD14 cell surface staining for lymphocyte and monocyte populations. Cells were then incubated with LukED (75 nM) in the presence or absence of maraviroc (MVC, 100 ng ml-1).
CCR5 inhibitor and ligands. Maraviroc was obtained through the AIDS Research and Reference Reagent Program, Division of AIDS (NIAID, NIH) and used at a final concentration of 100 ng ml-1.
FACS analysis. Cell staining was performed as described previously (Alonzo et al., “CCR5 is a Receptor for Staphylococcus aureus Leukotoxin ED,” Nature 493:51-55 (2013), which is hereby incorporated by reference in its entirety). FACS data were obtained using FACSDiva software on a LSRII flow cytometer (BD Biosciences). Data was analyzed using FlowJo software (Treestar).
(§1) Leukotoxin treatments. HEK293T cells, THP-1, primary human PBMCs and primary murine peritoneal exudate cells were treated with LukE, LukD or LukED as previously described (Alonzo et al., “CCR5 is a Receptor for Staphylococcus aureus Leukotoxin ED,” Nature 493:51-55 (2013), which is hereby incorporated by reference in its entirety). In all experiments 1-2×10^5 cells were seeded into 96-well plates. […]

[2] = test system: CCR5^+ cells; details: cited from earlier work
[3] = biological target: T1, DARC (Homo sapiens, UniProt Q16570); assay: Toxin susceptibility of HEK293T cells transfected with DARC; format: cell-based; details: ethidium bromide permeability (1 hr; HlgAB/HlgCB 20 μg/ml)
T1 construct: expressed in transfected cells; host or cells: HEK293T
T1 sequence (Q16570 1-336): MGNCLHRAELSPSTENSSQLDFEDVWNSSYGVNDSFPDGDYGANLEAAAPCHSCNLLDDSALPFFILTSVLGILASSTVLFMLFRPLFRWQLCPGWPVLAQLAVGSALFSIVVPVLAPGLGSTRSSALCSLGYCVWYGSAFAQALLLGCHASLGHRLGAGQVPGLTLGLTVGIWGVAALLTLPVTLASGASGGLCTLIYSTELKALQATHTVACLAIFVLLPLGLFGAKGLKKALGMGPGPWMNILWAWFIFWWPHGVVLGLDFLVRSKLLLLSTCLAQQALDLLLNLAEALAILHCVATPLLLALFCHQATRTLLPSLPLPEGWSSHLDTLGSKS

[4] = test system: human PMNs; assay: Viability of primary human neutrophils (PMNs) treated with leukotoxins; format: cell-based; details: HlgA or hybrid mixed equimolar with HlgB; CellTiter; n=8 donors
[5] = biological target: T2, CXCR1 (Homo sapiens, UniProt P25024); assay: Toxin susceptibility of HEK293T cells transfected with chemokine receptor CXCR1; format: cell-based; parameters: expressed in transfected cells; host or cells: HEK293T; details: viability (600 nM) or ethidium bromide permeability (1 hr; HlgAB/HlgCB 20 μg/ml)
T2 sequence (P25024 1-350): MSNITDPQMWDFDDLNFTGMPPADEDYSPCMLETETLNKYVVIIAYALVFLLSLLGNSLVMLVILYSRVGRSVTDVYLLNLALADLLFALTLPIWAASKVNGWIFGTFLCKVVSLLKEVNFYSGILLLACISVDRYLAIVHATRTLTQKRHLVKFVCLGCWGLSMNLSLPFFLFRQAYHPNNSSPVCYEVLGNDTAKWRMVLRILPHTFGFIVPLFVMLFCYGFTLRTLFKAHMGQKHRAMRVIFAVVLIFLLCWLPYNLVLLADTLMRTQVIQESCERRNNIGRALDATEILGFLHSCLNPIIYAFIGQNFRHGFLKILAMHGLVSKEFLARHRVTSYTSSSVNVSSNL

[6] = biological target: T3, CXCR2 (Homo sapiens, UniProt P25025); assay: Toxin susceptibility of HEK293T cells transfected with chemokine receptor CXCR2; format: cell-based; parameters: expressed in transfected cells; host or cells: HEK293T; details: viability (600 nM) or ethidium bromide permeability (1 hr; HlgAB/HlgCB 20 μg/ml)
T3 sequence (P25025 1-360): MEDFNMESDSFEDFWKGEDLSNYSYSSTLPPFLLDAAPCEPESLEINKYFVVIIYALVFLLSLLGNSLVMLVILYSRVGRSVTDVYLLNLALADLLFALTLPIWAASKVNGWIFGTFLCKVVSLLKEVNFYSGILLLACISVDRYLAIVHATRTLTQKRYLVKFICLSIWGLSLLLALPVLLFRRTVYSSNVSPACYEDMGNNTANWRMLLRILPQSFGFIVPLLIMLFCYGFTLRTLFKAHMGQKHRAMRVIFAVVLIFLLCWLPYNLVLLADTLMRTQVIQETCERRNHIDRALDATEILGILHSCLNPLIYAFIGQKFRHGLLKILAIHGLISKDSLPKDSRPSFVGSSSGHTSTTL
Procedure: Cell culture conditions and viral transductions. Primary human cells and THP-1 were cultured at 37° C. with 5% CO2 in RPMI supplemented with 10% fetal bovine serum (FBS; Atlanta Biologicals) and penicillin (100 U ml-1) and streptomycin (0.1 mg ml-1) (Mediatech) unless stated otherwise. Overexpression and lentiviral-based knockdown of Cxcr2 or non-target shRNA were performed as previously described (Wan et al., “Cytokine Signals Through PI-3 Kinase Pathway Modulate Th17 Cytokine Production by CCR6+ Human Memory T Cells,” J. Exp. Med. 208:1875-1887 (2011), which is hereby incorporated by reference in its entirety) and maintained in 1.3 μg ml-1 puromycin. HEK293T cells were cultured at 37° C. with 5% CO2 in DMEM (Cellgro) and supplemented as described above.
as §1

[7] = test system: human PMNs; assay: Binding and competition assays with GFP-LukE/GFP-LukD on PMNs, flow cytometry; details: GFP-LukE 300 nM
Procedure: Binding and competition assays. For binding assays, increasing concentrations of GFP-LukE or GFP-LukD were added to 5×10^4 human PMNs and incubated for 30 minutes on ice, then washed once in FACS buffer and fixed for 15 minutes at room temperature followed by flow cytometric analysis. Mean fluorescence intensity (MFI) of GFP^+ cells was measured to establish the toxin concentration required to achieve saturable binding. For remaining competition assays, increasing concentrations of either LukE or LukS-PV were co-incubated with a constant saturable concentration of LukE-GFP (300 nM) for 30 minutes. Cells were washed once in FACS buffer, fixed for 15 minutes in FACS fixing buffer, washed again in FACS buffer, and binding was assessed by flow cytometry. The mean GFP fluorescent intensity is represented as % GFP^+, based on the maximal fluorescence observed upon incubation with 300 nM GFP-LukE. […] Cells were washed once in FACS buffer, fixed for 15 minutes in FACS fixing buffer, washed again in FACS buffer, and binding was assessed by flow cytometry as described above. Results for these assays were depicted graphically using GraphPad PRISM software (version 5.0f, GraphPad PRISM Software, Inc.).

[8] = test system: CXCR1 and CXCR2 activation on human PMNs; assay: Calcium mobilization on PMNs (Fluo4-AM, flow cytometry); format: cell-based; details: LukE 300 nM
Procedure: Measurements of calcium mobilization. CXCR1 and CXCR2 activation on human PMNs was evaluated using the fluorescent calcium indicator Fluo4-AM (Invitrogen) as previously described (Alonzo et al., “CCR5 is a Receptor for Staphylococcus aureus Leukotoxin ED,” Nature 493:51-55 (2013), which is hereby incorporated by reference in its entirety). Briefly, cells were incubated for 30 minutes at room temperature with 3 μM of Fluo4-AM in Hank's Balanced Salt Solution (HBSS) followed by three washes in HBSS and equilibration at 37° C. for 30 minutes. Baseline calcium levels were analyzed over time on a flow cytometer for 60 seconds. […] The mean fluorescent intensity over 5-second intervals was plotted for graphical display.

[9] = biological target: T2, CXCR1; assay: Pulldown of His-tagged toxin with cell lysates containing HA-tagged CXCR1; format: binding; parameters: host or cells: HEK293T; details: HA-tagged receptor lysate
Procedure: (§2) Biochemical assays to examine interactions between LukED and CXCR1 or CXCR2. HEK293T cells were transiently transfected with cDNAs encoding N-terminal HA-tagged CXCR1 or CXCR2 (Missouri S&T cDNA Resource Center) using Lipofectamine 2000 (Invitrogen). Forty-eight hours post transfection, cells were detached with PBS containing 5 mM EDTA and membrane proteins were solubilized (approximately 1×10^6 cells per condition) for 1 hour using lysis buffer (PBS+10mM imidazole (Fisher)+1% Brij 010 (Sigma)+1 mM PMSF (Thermo Scientific)+2× protease inhibitor pellets (Roche)). His-tagged LukE and LukD were incubated with equilibrated Ni-NTA resin (Qiagen) for 2 hours, followed by three washes in lysis buffer. Lysates and resin were then incubated together for 2 hours, followed by three washes in lysis buffer and final resuspension of resin in 45 μl of 4×SDS sample buffer. Protein samples were run on 10% SDS-PAGE gels at 80V, followed by transfer to nitrocellulose membranes (GE) for 1 hour at 1 Amp. Membranes were blocked with PBS+0.01% Tween-20+5% non-fat milk for 1 hour and incubated overnight at 4° C. with either anti-His antibody diluted at 1:3,000 in PBS+0.01% Tween-20 for toxins (Cell Sciences) or anti-HA antibody diluted at 1:1,000 in with PBS+0.01% Tween-20+5% non-fat milk for receptors (Covance). […]

[10] = biological target: T3, CXCR2; assay: Pulldown of His-tagged toxin with cell lysates containing HA-tagged CXCR2; format: binding; parameters: host or cells: HEK293T; details: HA-tagged receptor lysate
Procedure: as §2

[11] = test system: human RBCs; assay: LukED-mediated lysis of human red blood cells; format: cell-based; details: n=3 donors

## Maraviroc [reference compound]
[1]
  protection of monocytes from LukED-mediated death: does not protect monocytes from LukED-mediated death
[2]
  block of LukED mediated killing of CCR5+ cells: known to block LukED mediated killing of CCR5^+ cells

## HlgAB: S. aureus γ-hemolysin bicomponent leukotoxin, HlgA (SEQ ID NO:6) plus HlgB (SEQ ID NO:16)
[3]
  susceptibility of DARC-transfected HEK293T cells to toxin: rendered cells susceptible
[4]
  cytotoxic activity against hPMNs: exhibited potent cytotoxic activity against hPMNs
[5]
  susceptibility of CXCR1-transfected HEK293T cells to toxin: rendered cells susceptible
[6]
  susceptibility of CXCR2-transfected HEK293T cells to toxin: rendered cells susceptible

## LukE: S. aureus Leukocidin E subunit, soluble protein SEQ ID NO:4
[7]
  competition with GFP-LukE binding to PMNs: competed off
[8]
  calcium mobilization on PMNs: unable to elicit calcium mobilization
[9]
  complex formation with CXCR1 (pulldown, immunoblot): forms complexes with both CXCR1 and CXCR2
[10]
  complex formation with CXCR2 (pulldown, immunoblot): forms complexes with both CXCR1 and CXCR2

B1: DARC: purified Duffy antigen receptor for chemokines (OriGene Technologies Inc.) (protein)
chain: MGNCLHRAELSPSTENSSQLDFEDVWNSSYGVNDSFPDGDYGANLEAAAPCHSCNLLDDSALPFFILTSVLGILASSTVLFMLFRPLFRWQLCPGWPVLAQLAVGSALFSIVVPVLAPGLGSTRSSALCSLGYCVWYGSAFAQALLLGCHASLGHRLGAGQVPGLTLGLTVGIWGVAALLTLPVTLASGASGGLCTLIYSTELKALQATHTVACLAIFVLLPLGLFGAKGLKKALGMGPGPWMNILWAWFIFWWPHGVVLGLDFLVRSKLLLLSTCLAQQALDLLLNLAEALAILHCVATPLLLALFCHQATRTLLPSLPLPEGWSSHLDTLGSKS
[11]
  inhibition of LukED-mediated lysis of RBCs: fully neutralize LukED-mediated lysis of RBCs

B2: HlgA^LukE-DR4/HlgB: HlgA with its DR4 domain swapped with LukE DR4, mixed equimolar with HlgB (protein)
chain 1: ENKIEDIGQGAEIIKRTQDITSKRLAITQNIQFDFVKDKKYNKDALVVKMQGFISSRTTYSDLKKYPYIKRMIWPFQYNISLKTKDSNVDLINYLPKNKIDSADVSQKLGYNIGGNFQSAPSIGGSGSFNYSKTISYNQKNYVTEVESQNSKGVKWGVKANSFVTPNGQVSAYDQYLFAQSPNGPTGSAREYFAPDNQLPPLIQSGFNPSFITTLSHERGKGDKSEFEITYGRNMDATYAYVTRHRLAVDRKHDAFKNRNVTVKYEVNWKTHEVKIKSITPK
chain 2: EGKITPVSVKKVDDKVTLYKTTATADSDKFKISQILTFNFIKDKSYDKDTLVLKATGNINSGFVKPNPNDYDFSKLYWGAKYNVSISSQSNDSVNVVDYAPKNQNEEFQVQNTLGYTFGGDISISNGLSGGLNGNTAFSETINYKQESYRTTLSRNTNYKNVGWGVEAHKIMNNGWGPYGRDSFHPTYGNELFLAGRQSSAYAGQNFIAQHQMPLLSRSNFNPEFLSVLSHRQDGAKKSKITVTYQREMDLYQIRWNGFYWAGANYKNFKTRTFKSTYEIDWENHKVKLLDTKETENNK
modifications: left off: small tags and cut ends
[4]
  cytotoxic activity against hPMNs: exhibited potent cytotoxic activity against hPMNs
